Bridge positions count the residues as written; N and C are the ends. Ends that are not written are not given here.
T1: human IL-2Rβ (CD122 protein, Fc Tag) (27-239) (human, UniProt P14784 27-239)
T1 construct: range 27-239; Bought protein; also called hu-IL-2Rβ subunit; IL-2Rβ subunit; not shown: Fc tag of the bought protein
T1 sequence (looked up): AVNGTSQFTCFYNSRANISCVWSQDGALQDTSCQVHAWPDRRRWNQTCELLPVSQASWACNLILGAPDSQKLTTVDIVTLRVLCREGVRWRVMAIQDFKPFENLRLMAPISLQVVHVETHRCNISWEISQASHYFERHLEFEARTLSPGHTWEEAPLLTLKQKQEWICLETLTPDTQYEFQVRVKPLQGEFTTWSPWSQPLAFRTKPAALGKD


Target: T1, human IL-2Rβ (CD122 protein, Fc Tag) …
Assay: phage ELISA competition
In short: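 IC50 comes from absorbance measured across a dilution series of ligand in a competitive binding ELISA against human IL-2Rβ-Fc, with a phage tracer as the competitor. The phage tracer (50 μL) was added with no wash step for 45 min at 4° C. Detection of bound phage used TMB for 1 to 15 min at 25° C, then stop solution and a reading at 450 nm.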

Row | Binder | IC50
1 | RPSWAPCWLAQVGELCDLDHPE [SEQ ID NO 2693] | < 100 µM
2 | SRSAGEYYPCWLAQLGELCDLA [SEQ ID NO 2697] | < 100 µM
3 | MLGEWLCEMDQLGYLCYLDHGD [SEQ ID NO 2654] | < 100 µM
4 | SGTGPAWYPCFLASLGQLCDLE [SEQ ID NO 2713] | < 100 µM
5 | WYPCWLAQLGELCDLD [SEQ ID NO 2691] | < 100 µM
6 | WLPCWMAHLGDLCDLE [SEQ ID NO 2692] | < 100 µM
7 | RRWLPCWMAHVGELCDLELGN [SEQ ID NO 2684] | < 100 µM
8 | WYPCSIALLGELCDLESVHEKS [SEQ ID NO 2689] | < 100 µM
9 | STGWYPCWIAEFGELCDLVKPH [SEQ ID NO 2646] | < 100 µM
10 | HGRWFPCWMAQVGDLCDLEHSN [SEQ ID NO 2676] | < 100 µM
11 | WYPCWMAQLGELCDMD [SEQ ID NO 2706] | < 100 µM
12 | WYPCWIAHLGELCDLE [SEQ ID NO 2671] | < 100 µM
13 | WYPCWMAHLGELCDLE [SEQ ID NO 2804] | < 100 µM
14 | WYPCWLAHLGELCDLA [SEQ ID NO 2725] | < 100 µM
15 | WHPCWIAHLGELCDLE [SEQ ID NO 2718] | < 100 µM
16 | QGTKWHWNPCWMAQLGELCDLD (disulfide 10-19 (inferred)) [SEQ ID NO 2711] | < 100 µM
17 | DLWQPCWMARLGELCDLKG [SEQ ID NO 2651] | < 100 µM
18 | SATWYPCFLANLGELCDLEQEN [SEQ ID NO 2703] | < 100 µM
19 | WYPCWIARVGELCDME [SEQ ID NO 2672] | < 100 µM
20 | QTGSYPCWIAHLGELCDLEGSA (disulfide 7-16 (inferred)) [SEQ ID NO 2649] | < 100 µM
21 | HPVRYPCWVAQLGELCDLENGN [SEQ ID NO 2648] | < 100 µM
22 | RQVPKQWYPCWMAALGELCDLE (disulfide 10-19 (inferred)) [SEQ ID NO 2698] | < 100 µM
23 | WYPCWIARVGELCDLEEGPVNR [SEQ ID NO 2669] | < 100 µM
24 | RSLRESWFPCWMAKLGDLCDLE [SEQ ID NO 2695] | < 100 µM
25 | RSGDKAFFPCWLAQLGDLCDLD [SEQ ID NO 2705] | < 100 µM
26 | WYPCWMAQLGELCDLDEAPVQP [SEQ ID NO 2701] | < 100 µM
27 | YWCWFARVGELCDLDDGGVPS [SEQ ID NO 2685] | < 100 µM
28 | WFPCWLAQLGELCDKE [SEQ ID NO 2681] | < 100 µM
29 | KNGPKSWYPCWMAQVGDLCDLD [SEQ ID NO 2712] | < 100 µM
30 | MNPVGTFYPCWIAKLGELCDLQ [SEQ ID NO 2687] | < 100 µM

Results, then the binder that gave them:

Row | IC50 | Binder
31 | < 100 µM | RVSYPCWLARLGELCDMDLEE [SEQ ID NO 2707]
32 | < 100 µM | WYPCWIAQLGELCDLV [SEQ ID NO 2682]
33 | < 100 µM | WYPCWLAKLGELCDLDRAEALP [SEQ ID NO 2677]
34 | < 100 µM | EQRNRQWWPCWLARLGDLCDLD [SEQ ID NO 2690]
35 | < 100 µM | AVEFYPCWLARIGELCDLVEP [SEQ ID NO 2670]
36 | < 100 µM | WHPCWLARVGDLCDLD [SEQ ID NO 2696]
37 | < 100 µM | RWPWYPCEIARIGELCDLEQAN [SEQ ID NO 2674]
38 | < 100 µM | SHLWFPCWMAQLGELCDLEGGP [SEQ ID NO 2683]
39 | < 100 µM | WYPCWLAQVGELCDLD [SEQ ID NO 2885]
40 | < 100 µM | WYSCWIAQLGELCDLDDMGDRV [SEQ ID NO 2680]
41 | < 100 µM | RDIWWPCWVAQLGELCDLDDPQ [SEQ ID NO 2702]
42 | < 100 µM | TGWWYPCWMAQLGELCDLQQT [SEQ ID NO 2650]
43 | < 100 µM | WHPCWMARLGELCDLD [SEQ ID NO 2710]
44 | < 100 µM | WYPCWIAQLGELCDLDAKGQRR [SEQ ID NO 2667]
45 | < 100 µM | TESWYPCWLANLGDLCDLEWSA (disulfide 7-16 (inferred)) [SEQ ID NO 2708]
46 | < 100 µM | MGTGWQNYCRYAQLGELCLL [SEQ ID NO 2652]
47 | < 100 µM | YAEWYPCWMARVGEVCDLEVTP [SEQ ID NO 2704]

Row | IC50 | Binder
48 | < 100 µM | RREWYPCWIAQVGELCDLPLI (disulfide 7-16 (inferred)) [SEQ ID NO 2673]
49 | < 100 µM | WYPCWLAHLGELCDLE [SEQ ID NO 2699]
50 | < 100 µM | FGAFYPCWKAQLGELCDLEPVT [SEQ ID NO 2675]
51 | < 100 µM | VWFPCWFAQLGDLCDLDQDP (disulfide 5-14 (inferred)) [SEQ ID NO 2678]
52 | < 100 µM | WYPCWIARVGELCDLE [SEQ ID NO 2884]
53 | < 100 µM | QVMRLWYPCWMAQLGELCDLE [SEQ ID NO 2700]
54 | < 100 µM | WYSCWIAQIGELCDLE [SEQ ID NO 2686]
55 | < 100 µM | WYPCGVAQPGDLCDLE [SEQ ID NO 2653]
56 | < 100 µM | HGGVIGWYPCWMAKVGELCDLD [SEQ ID NO 2688]
57 | < 100 µM | SRFWQPCWMAQLGELCHLDPQM [SEQ ID NO 2644]
58 | < 100 µM | ETLGSVWYPCWIASIGELCDLD [SEQ ID NO 2679]
59 | < 100 µM | TNNFYPCWLAKLGDLCDFDDLN [SEQ ID NO 2668]
60 | < 100 µM | ESKEPAFWPCWMAQLGDLCDLE [SEQ ID NO 2694]
61 | < 100 µM | WLPCWMADVGDLCDLD (disulfide 4-13 (inferred)) [SEQ ID NO 2709]
62 | < 100 µM | YLNFNPCWTAQLGELCDLASGE [SEQ ID NO 2645]
63 | < 100 µM | WDGWECGMDHDGWVCEFWGE [SEQ ID NO 2655]
64 | < 100 µM | AHWSQPCWTAQLGELCDLDMGD (disulfide 7-16 (inferred)) [SEQ ID NO 2647]
